{"source": "IntAct's records for PubMed 29892012", "parents": {"B1": {"name": "Histone-lysine N-methyltransferase SETD5 (Homo sapiens), Q9C0A6 (parent)", "chain": "MSIAIPLGVTTSDTSYSDMAAGSDPESVEASPAVNEKSVYSTHNYGTTQRHGCRGLPYATIIPRSDLNGLPSPVEERCGDSPNSEGETVPTWCPCGLSQDGFLLNCDKCRGMSRGKVIRLHRRKQDNISGGDSSATESWDEELSPSTVLYTATQHTPTSITLTVRRTKPKKRKKSPEKGRAAPKTKKIKNSPSEAQNLDENTTEGWENRIRLWTDQYEEAFTNQYSADVQNALEQHLHSSKEFVGKPTILDTINKTELACNNTVIGSQMQLQLGRVTRVQKHRKILRAARDLALDTLIIEYRGKVMLRQQFEVNGHFFKKPYPFVLFYSKFNGVEMCVDARTFGNDARFIRRSCTPNAEVRHMIADGMIHLCIYAVSAITKDAEVTIAFDYEYSNCNYKVDCACHKGNRNCPIQKRNPNATELPLLPPPPSLPTIGAETRRRKARRKELEMEQQNEASEENNDQQSQEVPEKVTVSSDHEEVDNPEEKPEEEKEEVIDDQENLAHSRRTREDRKVEAIMHAFENLEKRKKRRDQPLEQSNSDVEITTTTSETPVGEETKTEAPESEVSNSVSNVTIPSTPQSVGVNTRRSSQAGDIAAEKLVPKPPPAKPSRPRPKSRISRYRTSSAQRLKRQKQANAQQAELSQAALEEGGSNSLVTPTEAGSLDSSGENRPLTGSDPTVVSITGSHVNRAASKYPKTKKYLVTEWLNDKAEKQECPVECPLRITTDPTVLATTLNMLPGLIHSPLICTTPKHYIRFGSPFIPERRRRPLLPDGTFSSCKKRWIKQALEEGMTQTSSVPQETRTQHLYQSNENSSSSSICKDNADLLSPLKKWKSRYLMEQNVTKLLRPLSPVTPPPPNSGSKSPQLATPGSSHPGEEECRNGYSLMFSPVTSLTTASRCNTPLQFELCHRKDLDLAKVGYLDSNTNSCADRPSLLNSGHSDLAPHPSLGPTSETGFPSRSGDGHQTLVRNSDQAFRTEFNLMYAYSPLNAMPRADGLYRGSPLVGDRKPLHLDGGYCSPAEGFSSRYEHGLMKDLSRGSLSPGGERACEGVPSAPQNPPQRKKVSLLEYRKRKQEAKENSAGGGGDSAQSKSKSAGAGQGSSNSVSDTGAHGVQGSSARTPSSPHKKFSPSHSSMSHLEAVSPSDSRGTSSSHCRPQENISSRWMVPTSVERLREGGSIPKVLRSSVRVAQKGEPSPTWESNITEKDSDPADGEGPETLSSALSKGATVYSPSRYSYQLLQCDSPRTESQSLLQQSSSPFRGHPTQSPGYSYRTTALRPGNPPSHGSSESSLSSTSYSSPAHPVSTDSLAPFTGTPGYFSSQPHSGNSTGSNLPRRSCPSSAASPTLQGPSDSPTSDSVSQSSTGTLSSTSFPQNSRSSLPSDLRTISLPSAGQSAVYQASRVSAVSNSQHYPHRGSGGVHQYRLQPLQGSGVKTQTGLS", "partner": "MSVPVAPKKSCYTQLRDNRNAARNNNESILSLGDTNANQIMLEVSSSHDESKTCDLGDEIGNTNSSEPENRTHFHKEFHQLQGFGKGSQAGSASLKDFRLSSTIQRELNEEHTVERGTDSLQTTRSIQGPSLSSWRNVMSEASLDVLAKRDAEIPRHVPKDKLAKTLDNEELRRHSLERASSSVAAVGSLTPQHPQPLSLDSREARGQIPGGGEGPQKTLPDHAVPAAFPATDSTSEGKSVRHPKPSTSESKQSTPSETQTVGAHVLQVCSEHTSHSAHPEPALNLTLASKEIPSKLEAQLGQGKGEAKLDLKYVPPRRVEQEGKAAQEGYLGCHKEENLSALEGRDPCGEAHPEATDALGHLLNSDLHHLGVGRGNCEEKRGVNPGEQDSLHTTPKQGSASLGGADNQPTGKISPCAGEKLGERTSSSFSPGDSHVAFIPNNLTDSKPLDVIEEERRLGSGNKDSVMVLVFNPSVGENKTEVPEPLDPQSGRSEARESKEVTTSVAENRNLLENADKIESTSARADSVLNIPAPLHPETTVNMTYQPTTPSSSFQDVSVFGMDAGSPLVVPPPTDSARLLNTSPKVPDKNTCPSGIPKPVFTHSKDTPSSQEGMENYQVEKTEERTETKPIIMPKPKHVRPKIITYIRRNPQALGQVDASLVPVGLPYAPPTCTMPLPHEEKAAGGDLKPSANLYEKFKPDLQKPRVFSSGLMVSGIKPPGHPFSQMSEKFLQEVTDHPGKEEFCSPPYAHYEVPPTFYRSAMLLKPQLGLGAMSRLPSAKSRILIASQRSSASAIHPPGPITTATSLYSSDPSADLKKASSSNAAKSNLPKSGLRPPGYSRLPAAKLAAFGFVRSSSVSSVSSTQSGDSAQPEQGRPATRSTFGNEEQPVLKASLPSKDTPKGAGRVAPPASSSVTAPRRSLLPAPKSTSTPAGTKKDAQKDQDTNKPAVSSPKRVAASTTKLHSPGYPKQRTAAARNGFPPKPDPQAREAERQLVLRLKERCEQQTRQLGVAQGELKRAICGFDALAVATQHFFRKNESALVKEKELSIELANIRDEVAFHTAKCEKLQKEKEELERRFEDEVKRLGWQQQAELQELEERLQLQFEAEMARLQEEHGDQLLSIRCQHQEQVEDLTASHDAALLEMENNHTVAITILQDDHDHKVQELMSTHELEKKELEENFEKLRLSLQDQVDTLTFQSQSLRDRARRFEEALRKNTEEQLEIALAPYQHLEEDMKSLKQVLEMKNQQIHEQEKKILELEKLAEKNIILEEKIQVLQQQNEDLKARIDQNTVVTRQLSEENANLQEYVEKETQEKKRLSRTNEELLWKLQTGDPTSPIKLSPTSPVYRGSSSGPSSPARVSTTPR"}, "B2": {"name": "Zinc finger and BTB domain-containing protein 49 (Homo sapiens), Q6ZSB9 (parent)", "chain": "MDPVATHSCHLLQQLHEQRIQGLLCDCMLVVKGVCFKAHKNVLAAFSQYFRSLFQNSSSQKNDVFHLDVKNVSGIGQILDFMYTSHLDLNQDNIQVMLDTAQCLQVQNVLSLCHTFLKSATVVQPPGMPCNSTLSLQSTLTPDATCVISENYPPHLLQECSADAQQNKTLDESHPHASPSVNRHHSAGEISKQAPDTSDGSCTELPFKQPNYYYKLRNFYSKQYHKHAAGPSQERVVEQPFAFSTSTDLTTVESQPCAVSHSECILESPEHLPSNFLAQPVNDSAPHPESDATCQQPVKQMRLKKAIHLKKLNFLKSQKYAEQVSEPKSDDGLTKRLESASKNTLEKASSQSAEEKESEEVVSCENFNCISETERPEDPAALEDQSQTLQSQRQYACELCGKPFKHPSNLELHKRSHTGEKPFECNICGKHFSQAGNLQTHLRRHSGEKPYICEICGKRFAASGDVQRHIIIHSGEKPHLCDICGRGFSNFSNLKEHKKTHTADKVFTCDECGKSFNMQRKLVKHRIRHTGERPYSCSACGKCFGGSGDLRRHVRTHTGEKPYTCEICNKCFTRSAVLRRHKKMHCKAGDESPDVLEELSQAIETSDLEKSQSSDSFSQDTSVTLMPVSVKLPVHPVENSVAEFDSHSGGSYCKLRSMIQPHGVSDQEKLSLDPGKLAKPQMQQTQPQAYAYSDVDTPAGGEPLQADGMAMIRSSLAALDNHGGDPLGSRASSTTYRNSEGQFFSSMTLWGLAMKTLQNENELDQ"}, "B3": {"name": "Zinc finger and BTB domain-containing protein 49 (Homo sapiens), Q6ZSB9 (parent)", "chain": "B2 chain", "partner": "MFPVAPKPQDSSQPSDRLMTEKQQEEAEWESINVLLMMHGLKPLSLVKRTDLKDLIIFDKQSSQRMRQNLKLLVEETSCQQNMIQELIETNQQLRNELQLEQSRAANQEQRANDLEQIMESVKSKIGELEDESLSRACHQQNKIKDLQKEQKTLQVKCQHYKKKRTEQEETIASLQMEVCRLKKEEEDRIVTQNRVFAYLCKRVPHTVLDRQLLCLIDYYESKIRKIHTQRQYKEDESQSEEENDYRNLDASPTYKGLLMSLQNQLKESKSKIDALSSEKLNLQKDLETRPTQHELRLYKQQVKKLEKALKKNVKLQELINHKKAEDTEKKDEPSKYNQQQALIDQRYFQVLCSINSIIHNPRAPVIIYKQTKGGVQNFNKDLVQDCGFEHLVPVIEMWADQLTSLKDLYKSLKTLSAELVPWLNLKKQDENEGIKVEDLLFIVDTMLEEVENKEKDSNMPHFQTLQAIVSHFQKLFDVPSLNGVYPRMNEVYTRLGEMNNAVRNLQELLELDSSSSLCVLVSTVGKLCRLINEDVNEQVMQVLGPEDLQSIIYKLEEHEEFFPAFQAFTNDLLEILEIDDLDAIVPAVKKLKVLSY"}, "B4": {"name": "Glucosamine-6-phosphate deaminase 2 (Homo sapiens), Q8TDQ7 (parent)", "chain": "MRLVILDNYDLASEWAAKYICNRIIQFKPGQDRYFTLGLPTGSTPLGCYKKLIEYHKNGHLSFKYVKTFNMDEYVGLPRNHPESYHSYMWNNFFKHIDIDPNNAHILDGNAADLQAECDAFENKIKEAGGIDLFVGGIGPDGHIAFNEPGSSLVSRTRLKTLAMDTILANAKYFDGDLSKVPTMALTVGVGTVMDAREVMILITGAHKAFALYKAIEEGVNHMWTVSAFQQHPRTIFVCDEDATLELRVKTVKYFKGLMHVHNKLVDPLFSMKDGN", "partner": "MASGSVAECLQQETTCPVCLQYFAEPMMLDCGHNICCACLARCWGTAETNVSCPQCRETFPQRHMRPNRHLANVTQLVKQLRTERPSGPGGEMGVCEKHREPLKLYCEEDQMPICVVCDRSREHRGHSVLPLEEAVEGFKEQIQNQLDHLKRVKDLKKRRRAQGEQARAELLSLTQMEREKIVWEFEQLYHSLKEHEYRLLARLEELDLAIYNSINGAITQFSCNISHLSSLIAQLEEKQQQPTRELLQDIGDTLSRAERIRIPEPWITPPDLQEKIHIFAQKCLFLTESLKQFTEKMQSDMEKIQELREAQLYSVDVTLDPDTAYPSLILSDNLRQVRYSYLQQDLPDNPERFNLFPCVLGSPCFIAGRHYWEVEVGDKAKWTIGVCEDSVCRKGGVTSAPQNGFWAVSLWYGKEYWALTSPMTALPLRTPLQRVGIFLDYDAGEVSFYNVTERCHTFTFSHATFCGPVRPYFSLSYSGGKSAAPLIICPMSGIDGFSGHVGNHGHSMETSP"}, "B5": {"name": "Glucosamine-6-phosphate deaminase 2 (Homo sapiens), Q8TDQ7 (parent)", "chain": "B4 chain", "partner": "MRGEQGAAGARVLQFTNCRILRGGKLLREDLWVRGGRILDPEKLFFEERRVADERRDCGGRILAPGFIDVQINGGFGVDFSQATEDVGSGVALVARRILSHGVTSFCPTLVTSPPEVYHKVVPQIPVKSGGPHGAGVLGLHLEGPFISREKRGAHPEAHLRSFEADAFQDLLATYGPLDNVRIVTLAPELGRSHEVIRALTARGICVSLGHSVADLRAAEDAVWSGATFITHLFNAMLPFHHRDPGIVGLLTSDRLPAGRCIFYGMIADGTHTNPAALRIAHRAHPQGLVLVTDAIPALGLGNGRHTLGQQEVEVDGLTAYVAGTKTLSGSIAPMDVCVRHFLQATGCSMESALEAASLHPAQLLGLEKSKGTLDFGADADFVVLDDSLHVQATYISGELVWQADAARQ"}}}
{"variants_of": "B1", "conditions": "with mtus2_human MTUS2, Q5JR59"}
{"variant": "G669R", "effect of a mutation on the interaction": "with no effect"}
{"variants_of": "B2", "conditions": "with gopc_human GOPC"}
{"variant": "D88V", "effect of a mutation on the interaction": "with no effect"}
{"variants_of": "B3", "conditions": "with cep70_human CEP70, Q8NHQ1"}
{"variant": "D88V", "effect of a mutation on the interaction": "with no effect"}
{"variants_of": "B4", "conditions": "with tri27_human TRIM27, P14373"}
{"variant": "I216V", "effect of a mutation on the interaction": "with no effect"}
{"variants_of": "B5", "conditions": "with naga_human AMDHD2, Q9Y303"}
{"variant": "I216V", "effect of a mutation on the interaction": "with no effect"}
